Laboratory results published in publication PMC3616741.

Biological target: T1, U2AF65 1,2 (RRM1-RRM2, wild-type linker) (Homo sapiens, UniProt P26368 148-336)
Assay: SPR

T1 sequence (P26368 148-336, one chain of several): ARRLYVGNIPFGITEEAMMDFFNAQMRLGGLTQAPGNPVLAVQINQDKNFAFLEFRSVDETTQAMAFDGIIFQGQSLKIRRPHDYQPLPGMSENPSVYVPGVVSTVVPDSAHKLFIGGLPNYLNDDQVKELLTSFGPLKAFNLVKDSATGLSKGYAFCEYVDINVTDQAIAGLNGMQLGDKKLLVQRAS

UUUUUUUUUUUUU (ssRNA) [rU13] and CCUCUCUUCCCCC (ssRNA) [rU(3)C(4,6,9,10,11)] are within error of each other in Kd: 13.1 ± 0.9 µM for the first, 14.4 ± 1.1 µM for the second.

Compared with CCUUUCCCCCCCC (ssRNA) [5'-3rU], CCCCCCCCUUUCC (ssRNA) [3'-3rU] is 4.1-fold higher in Kd: 22 ± 0.9 µM for the first, 89.5 ± 3.9 µM for the second. The first binds more tightly here.

Compared with CCUUUUCCCCCCC (ssRNA) [5'-4rU], CCCCCCCUUUUCC (ssRNA) [3'-4rU] is 4.9-fold higher in Kd: 14.3 ± 0.6 µM for the first, 69.4 ± 3.1 µM for the second. The first binds more tightly here.

First: CCUUUUUCCCCCC (ssRNA) [5'-5rU]
Second: CCCCCCUUUUUCC (ssRNA) [3'-5rU]
The Kd of the first is 3.1-fold lower: 14.4 ± 0.8 µM for the first, 45.2 ± 3.4 µM for the second.

CCCUCUUUUUUCC (ssRNA) [rC(5)] and CCCUUUCUUUUCC (ssRNA) [rC(7)] are within 1.5-fold of each other in Kd: 13.9 ± 1 µM for the first, 9.3 ± 0.4 µM for the second.

CCCUUUUUCUUCC (ssRNA) [rC(9)] and CCCUUUUUUCUCC (ssRNA) [rC(10)] are within error of each other in Kd: 13.7 ± 1.3 µM for the first, 11.9 ± 0.8 µM for the second.

CCCUUUCUCUUCC (ssRNA) [rC(7,9)] and CCCUUUCUUCUCC (ssRNA) [rC(7,10)] are within 1.5-fold of each other in Kd: 11 ± 0.6 µM for the first, 14.5 ± 0.9 µM for the second.

Going from CCCUUUCUCCUCC (ssRNA) [rC(7,9,10)] to CCCCCUUCUCUCC (ssRNA) [rC(4,5,8,10)], the Kd rises from 11.6 ± 0.8 µM to 27.9 ± 1.3 µM (2.4-fold).

Biological target: U2AF65 1,2 MUT (Homo sapiens, UniProt P26368 148-336, D293N;K329Q;L331K;Q333E)
Sequence (P26368 148-336 D293N/K329Q/L331K/Q333E, one chain of several): as the sequence (P26368 148-336, one chain of several) above, with D146N, K182Q, L184K, Q186E counted along it
Assay: SPR

CCUUUUCCCCCCC (ssRNA) [5'-4rU] and CCCCCCCUUUUCC (ssRNA) [3'-4rU] are within error of each other in Kd: 14 ± 1.6 µM for the first, 12.5 ± 1.3 µM for the second.

Biological target: T1, U2AF65 1,2 (RRM1-RRM2, wild-type linker)
Assay: SPR
Remark: another data set of the same source

With CCCUUUUUUUUCC (ssRNA) [rAdML13] the Kd was 12.5 ± 1.6 µM.
